Experimental data published in the RNAGym collection of RNA variant scans (doi:10.1073/pnas.2313332121).

B1: TPR t1 (parent)
chain: GACCAAUCUGCCCUCAGAGCUCGAGAACAUCUUCGGAUGCAGAGGAGGCAGGCUUCGGUGGCGCGAUAGCGCCAACGUCCUCAACCUCCAAUGCAUCCCACCACAUGAUGAUGCCUGAAGAGCCUUGGUUUUUUG

Variants of: B1
Assay: polymerase ribozyme fitness, log enrichment relative to wild type (log ratio); higher = more active; in vitro selection for triplet polymerase activity
Procedure, shortened: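 For each subunit of a heterodimeric triplet polymerase ribozyme, a mutant library was built by PCR and transcribed, then taken through a single in vitro selection round in triplicate. Selection involved annealing to a biotinylated primer, the partner subunit and triplets, incubation frozen at −7 °C, gel excision of extended constructs, capture on streptavidin beads and RT-PCR. Genotypes were retained after Illumina sequencing of inputs and outputs only with ≥10 input reads and ≥1 read in each output. Fitness is defined as the logarithm of a genotype's enrichment relative to wild-type enrichment, using inverse-variance-weighted averages across replicates, with the logarithm taken to base 2.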

For GACCAACCUGCCCUCAGAGCGCGAGAACAUCUUCGGAUGCAGAGGAGGCAGGCUUCGGUGGCGCGAUAGCGCCAACGUCCUCAACCUCCAAUGCAGCCCACCACAUGAUGAUGCCUGAAGAGCCUUGGUUUUUUG [U7C U21G U96G], which “polymerase ribozyme fitness (log ratio)” value is on record?
Its value is -1.67.

Which “polymerase ribozyme fitness (log ratio)” value does the source give for GACCAACCUAGCCUCAGAGCUCGAGAACAUCUUCGGAUGCAGAGGAGGCAGGCUUCGGUGGCGCGAUAGCGCCAACGUCCUCAACCUCCAAUUCAUCCCACCACAUGAUGAUGCCUGAAGAGCCUUGGUUUUUUG [U7C G10A C11G G93U] here?
The value was -1.34.

With GACCAACCUGCCCUCAGAGCUCGAGAACAUCUUCGGAUGCAUAGGAGGCAGGCUUCGGUCGCGCGAUAGCGCCAACGUCCUCAACCUCCAAUGCAUCCCACCACAUGAUGAUGCCUGAAAAGCGUUGAUUUUUUG [U7C G42U G60C G120A C124G G128A] as the variant, how does the “polymerase ribozyme fitness (log ratio)” value read?
The value was -3.07.

Which “polymerase ribozyme fitness (log ratio)” value does the source give for GACCAACCUGCCCUCAGAGCUCGAGAACAUCUUCGGAUGCAGAGGAGGCAGGCUUCUGUGGCGCGAUAGCGCCAACGUCCUCAACCUCCAAUGCAUCCCACCACAUGAUGAUGCCUGAAGAGCCUUGGUUUUUUG [U7C G57U] here?
The value was 0.0649.

With GACCAACCUGCCCUCAGAGCUCGAGAACAUCUUCGGAUGCAGAGGAGGCAGGCUUCAGUGGCGCGAUAGCGCCAACGUCCUCAACCUCCAAUGCAUCCCACCACAUGAUGAUGCCUGAAGAGCCUUGGUUUUUUG [U7C G57A] as the variant, how does the “polymerase ribozyme fitness (log ratio)” value read?
The value was -0.108.

For GACCAAGCUGCCCUCAGAGCUCGAGAACAUCUUCGGAUGCAGAGGCGGCAGGCUUCGGUGGCGCGAUCGUGCCAACGUCCUCAACCUCCAAUGCAUUCCACCACAUGAUGAUGCCUGAAUAGCCUUUGUUUUUUG [U7G A46C A68C C70U C97U G120U G127U], which “polymerase ribozyme fitness (log ratio)” value is on record?
The value was -5.43.

For GACCAACCUGCCCUCAGAGCUCGAGAACAUCUUCGGAUGCACAGGAGGCAGGCUUCGGUGGCGCGAUAGCGCCAACGUCCUCAACCUUCAAUGCAUCCCACCACAUGAUGAUGCUUGAAGAGCCUUGGUUUUAUG [U7C G42C C88U C115U U133A], which “polymerase ribozyme fitness (log ratio)” value is on record?
Its value is -0.576.

With GACCAAGCUGCCCUCAGAGCUCGAGAACAUCUUCGGAUGCAGAGGAGGCAGGCUUCGGUGGCGCGCUAGCUCCAACGUCCUCAACCUCCAAUGCAUCCCACCACAUGAUGAUGCCUGAAGAGCCUUGGUUUUUUG [U7G A66C G71U] as the variant, how does the “polymerase ribozyme fitness (log ratio)” value read?
Its value is -1.24.

Which “polymerase ribozyme fitness (log ratio)” value does the source give for GACCAACCUGCCCUCAGAGCUCGAGAACAUCUUCGGAUGCAGAGGAGGCAGGCUUCGGUGGCGCGAUAGCGCCAACGUCCUCAACCUCCAAUGCACCCCACAACAUGUUGAUGUCUGAAGAGCCUUGGUUUUUUG [U7C U96C C102A A108U C114U] here?
The value was -5.22.

With GACCAACCUGCCCUCAGAGCUCGAGAACAUCUUCGGAUGCAGAGGAGGCAGGCUUCGGUGGCGCGAUACCGCCAACGUCCUCAACCUCCGAUGCAUCCCACCACAUGAUGAUCCCUGAAGAGCCUUGGUUUUUUG [U7C G69C A90G G113C] as the variant, how does the “polymerase ribozyme fitness (log ratio)” value read?
Its value is -3.11.

For GACCAACCUGCCCUCAGAGCUCGAGAACAUCUUCGGAUGCAUAGGAGGCAGGCUUCGGUGGCGCGAUACCGCCAACGUCCUCAACCUCCAAUGCAUCCCACCACAUGAUGAUGCCUGAAGAGCCUUGGUUUUUUG [U7C G42U G69C], which “polymerase ribozyme fitness (log ratio)” value is on record?
The value was -2.97.

With GACCAAGCUGCCCUCAGAGCUCGAGAACAUCUUCGGAUGCAGAGGUGGCAGGCUUCGGUGGCGCGAUAGCGCCAACGUCCUUAACCUCCAAUGCAUCCCACAACAUGAUGAAGCCUGAAGAGCCUUGGUUUUUUG [U7G A46U C82U C102A U112A] as the variant, how does the “polymerase ribozyme fitness (log ratio)” value read?
Its value is -0.759.

With GACCAAGCUGCCCUCAGAGCUCGAGAACAUCUUCGGAUGCAGAGGAGGCAGGCUUCGGUGGCGCGAUAGCGCCCACGUCCUCAACCUCCAAUUCAUCCCACCACAUGAUGAUACCUGAAGAGCCUUGGUUUUUUG [U7G A74C G93U G113A] as the variant, how does the “polymerase ribozyme fitness (log ratio)” value read?
The value was -1.35.

Which “polymerase ribozyme fitness (log ratio)” value does the source give for GACCAAGCUGCCCUCAGAGCUCGAGAACAUCUUCGGAUGCAGAGGAGGCGGGCCUCGGUGGCGCGAUAGCGCCAACGUCCUCAACCUCCAAUGCAUCCCACCACAUGAUGAUGCCUGAAGAGCCUUGUUUUUUUG [U7G A50G U54C G128U] here?
The value was -1.5.

For GACCAAGCUGCCCUCAGAGCUCGAGAACAUCUUCGGAUGCCGAGGAGGCAGGCUUUGGUGGCGCGAUAGCGCCAACGUCCUCAACCUCCAAUGCAUCCCACCACAUGAUGAUGCCUGAAGAGCCUUGGUUUUUUG [U7G A41C C56U], which “polymerase ribozyme fitness (log ratio)” value is on record?
The value was -0.335.

For GACCAAGCUGCCCUCAGAGCUCGAGAACAUCUUCGGAUGCAGUGGACGCAGGCUUCGUGGGCGCGAUAGCGCCAACGUCCUUAACCUCCAAUGCAUCCCACCACAUGAUAAUGCCUGAAGAGCCUUGGUUUUUUG [U7G A43U G47C G58U U59G C82U G110A], which “polymerase ribozyme fitness (log ratio)” value is on record?
The value was -5.4.

Which “polymerase ribozyme fitness (log ratio)” value does the source give for GACCAAGAUGCCCUCAGAGCUCGAGAACAUCUUCGGAUGCAGAGGAGGCAGGCUUCGGUGGCGCGAUAGCGCCAACGUCCUCAACCUCCAAUGCAUCCCACCACAUGAUGAUGCCUGAAGAGCCUUGGUUUUUUG [U7G C8A] here?
Its value is 0.287.

Which “polymerase ribozyme fitness (log ratio)” value does the source give for GACCAAGCUGCCCUCCGAGCUCGAGAACAUCUUCGGAUGCAGAGGAGGCAGGCUGUGGUGGCGCGAUAGCGCCAACGUCCUCAGCCUCCAAUGCAUCCCACCACAUGAUGAUGCCUGAAGAGCCUUGGUUUUUUG [U7G A16C U55G C56U A84G] here?
The value was -4.09.

For GACCAACCUGCCCUCAGAGCUCGAGAACAUCUUCGGAUGCACAGGAGGCAGGCUUCGGUGGCGCGAUAGCGCCAACGUCCUCAACCACCAAUGCAUCCCACCACAUGAUGAUGCCUGAAGAGCCUUGGUUUUUUG [U7C G42C U87A], which “polymerase ribozyme fitness (log ratio)” value is on record?
Its value is -1.73.

Which “polymerase ribozyme fitness (log ratio)” value does the source give for GACCAAGCUGCCCUCAGAGCUCGAGAACAUCUUCGGAUGCAGAGGAGGCAGGCUUCGGUGGCGCGAUAGCGCCAACGUCCUCAACCUCCAAUGCAUCCCACCACCUGAUGAUGCCUGAAUAGCCUUGGUUUUUUG [U7G A105C G120U] here?
The value was -0.828.

Which “polymerase ribozyme fitness (log ratio)” value does the source give for GACCAACCUGCCCUCAGAGCUCGAGAACAUCUUCGGAUGCAGAGGAGGCAGGCUUCGGUGGCGCGAUAACGCCAACGUCCUCAACCUCCAAUGCAUCCCACCACAUGAUGAUGCCUGAAGAGCCUUGGUUUUUUG [U7C G69A] here?
Its value is -2.74.
